Reference: patent publication US20260132208A1 (DOMAIN THERAPEUTICS, published 2026)
“And” between values parts separate entries of the source, which are not always exact repeats. Equal values may be shown once.

B1: anti-CCR8 mAb 1-45 (antibody, human IgG1, kappa)
heavy: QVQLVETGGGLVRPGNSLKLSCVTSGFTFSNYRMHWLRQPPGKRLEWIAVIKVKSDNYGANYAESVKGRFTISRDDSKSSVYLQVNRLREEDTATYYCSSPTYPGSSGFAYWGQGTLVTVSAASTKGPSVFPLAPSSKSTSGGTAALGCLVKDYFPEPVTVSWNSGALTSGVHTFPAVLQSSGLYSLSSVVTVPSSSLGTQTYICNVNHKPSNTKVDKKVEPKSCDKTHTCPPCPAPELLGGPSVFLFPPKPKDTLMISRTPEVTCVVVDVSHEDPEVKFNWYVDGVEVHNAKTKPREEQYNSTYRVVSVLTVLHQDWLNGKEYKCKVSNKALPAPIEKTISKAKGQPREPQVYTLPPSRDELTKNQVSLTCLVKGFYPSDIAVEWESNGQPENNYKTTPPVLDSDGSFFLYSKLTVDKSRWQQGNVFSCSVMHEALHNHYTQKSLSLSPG
light: DIQMTQTTSSLSASLGDRVTISCRASQDISNYLNWYQQKPDGTVKLLIYYTSRLHSGVPSRFSGSGSGTDYSLTISNLEQEDIATYFCQQGNKFPPTFGGGTKLEINRTVAAPSVFIFPPSDEQLKSGTASVVCLLNNFYPREAKVQWKVDNALQSGNSQESVTEQDSKDSTYSLSSTLTLSKADYEKHKVYACEVTHQGLSSPVTKSFNRGEC
B2: anti-CCR8 mAb 1-48 (antibody, human IgG1, kappa)
heavy: QVQLVETGGGLVRPGNSLKLSCVTSGFTFSNYRMHWLRQPPGKRLEWIAVIKVKSDNYGANYAESVKGRFTISRDDSKSSVYLQVNRLREEDTATYYCSSPTYPGSSGFAYWGQGTLVTVSAASTKGPSVFPLAPSSKSTSGGTAALGCLVKDYFPEPVTVSWNSGALTSGVHTFPAVLQSSGLYSLSSVVTVPSSSLGTQTYICNVNHKPSNTKVDKKVEPKSCDKTHTCPPCPAPELLGGPDVFLFPPKPKDTLMISRTPEVTCVVVDVSHEDPEVKFNWYVDGVEVHNAKTKPREEQYNSTYRVVSVLTVLHQDWLNGKEYKCKVSNKALPLPEEKTISKAKGQPREPQVYTLPPSRDELTKNQVSLTCLVKGFYPSDIAVEWESNGQPENNYKTTPPVLDSDGSFFLYSKLTVDKSRWQQGNVFSCSVMHEALHNHYTQKSLSLSPG
light: B1 light
B3: anti-CCR8 mAb 1-16 (antibody, V domains shown)
VH: EVQLQQSGPELVKPGASVKISCKASVYSFTGSYMHWVKQSHVKSLEWIGRINPYNGATSYNQNFKDKASLTVDKSSSTAYMELHSLTSEDSAVYYCATTLLRLLDYWGQGTTLTVSS
VL: DIVMTQAAFSNPVTLGTSASISCRSSKSLLHSNGITYLYWYLQKPGQSPQLLIYQMSNLASGVPDRFSSSGSGTDFTLRISRVEAEDVGVYYCAQNLELPWTFGGGTKLEIK
notes: Murine hybridoma mAb
B4: anti-CCR8 mAb 1-33 (antibody, human IgG1, kappa)
heavy: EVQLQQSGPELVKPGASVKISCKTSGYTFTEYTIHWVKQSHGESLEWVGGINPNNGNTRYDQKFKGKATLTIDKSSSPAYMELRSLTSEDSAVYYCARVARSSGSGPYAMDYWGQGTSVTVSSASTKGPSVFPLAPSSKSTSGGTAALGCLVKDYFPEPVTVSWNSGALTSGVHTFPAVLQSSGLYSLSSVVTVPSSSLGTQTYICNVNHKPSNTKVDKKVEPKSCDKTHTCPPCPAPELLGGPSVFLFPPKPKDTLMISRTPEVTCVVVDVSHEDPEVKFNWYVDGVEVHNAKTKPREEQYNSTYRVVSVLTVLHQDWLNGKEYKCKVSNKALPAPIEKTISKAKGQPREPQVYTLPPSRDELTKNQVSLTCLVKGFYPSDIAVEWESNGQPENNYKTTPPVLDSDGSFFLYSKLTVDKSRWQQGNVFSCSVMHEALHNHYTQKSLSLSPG
light: DVVMTQTPLSLPVSLGDQASISCRCTQSLLHTNGDTYLHWYLQKPGQSPKLLIYKVSNRFSGVPDRFSGSGSGTDFTLKISRVEAEDLGVYFCSQSTHVPYTFGGGTKLEIKRTVAAPSVFIFPPSDEQLKSGTASVVCLLNNFYPREAKVQWKVDNALQSGNSQESVTEQDSKDSTYSLSSTLTLSKADYEKHKVYACEVTHQGLSSPVTKSFNRGEC
B5: anti-CCR8 mAb 1-35 (antibody, human IgG1, kappa)
heavy: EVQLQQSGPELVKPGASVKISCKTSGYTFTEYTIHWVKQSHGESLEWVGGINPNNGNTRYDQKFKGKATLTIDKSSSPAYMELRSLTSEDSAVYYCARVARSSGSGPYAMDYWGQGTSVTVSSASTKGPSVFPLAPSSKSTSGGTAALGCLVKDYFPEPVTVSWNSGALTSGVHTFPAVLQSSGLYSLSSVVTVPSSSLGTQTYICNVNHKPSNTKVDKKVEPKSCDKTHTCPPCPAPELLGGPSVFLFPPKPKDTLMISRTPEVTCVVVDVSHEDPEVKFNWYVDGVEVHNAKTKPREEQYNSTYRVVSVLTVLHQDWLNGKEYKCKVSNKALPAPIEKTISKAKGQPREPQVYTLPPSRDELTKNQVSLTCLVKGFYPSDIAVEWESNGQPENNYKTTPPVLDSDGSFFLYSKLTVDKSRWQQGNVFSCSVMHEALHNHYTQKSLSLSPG
light: B4 light
modifications: hypofucosylated (low fucosylated) Fc glycan
B6: anti-CCR8 mAb 1-10 (antibody, V domains shown)
VH: EVQLQQSGPELVKPGASVKISCKTSGYTFTEYTIHWVKQSHGESLEWVGGINPNNGNTRYDQKFKGKATLTIDKSSSPAYMELRSLTSEDSAVYYCARVARSSGSGPYAMDYWGQGTSVTVSS
VL: DVVMTQTPLSLPVSLGDQASISCRCTQSLLHTNGDTYLHWYLQKPGQSPKLLIYKVSNRFSGVPDRFSGSGSGTDFTLKISRVEAEDLGVYFCSQSTHVPYTFGGGTKLEIK
notes: Murine hybridoma mAb
B7: anti-CCR8 mAb 1-17 (antibody, V domains shown)
VH: QVQLQQPGSELVRPGASVKLSCKASGYTFTSYWMHWVKQRPGQGLEWIGNIWPGSASTNYDEKFKNKATLTVDTSSSTAYMQLSSLTSEDSAVYYCIRGGKGAMDYWSQGTSVTVSS
VL: DVVMTQIPLSLPVSLGDQASISCRSSQSLENSYGNTYLNWYLQKPGQSPQLLIYRVSNRFSGVLDRFSGSGSGTDFTLKISRVEAEDLGVYFCLQVTHVPPTFGAGTKLELK
notes: Murine hybridoma mAb

Tests used:
human CCR8 [1] = target: T1, human CCR8 (human, UniProt P51685 1-355); assay: cell-based or functional assay
human CCR8 [2] = target: T1, human CCR8; assay: cell-based or functional assay; remark: listed apart in the source
human CCR8 [3] = target: T1, human CCR8; assay: flow cytometry, inhibition of hCCL1-AF647 (10 nM) binding to hCCR8-CHO cells
Description: The hCCR8 transfected CHO cell line was dispatched at a density of 1.105 per well in a 96-well plate. Cells were incubated for 30 min at 4° C. with or without anti-CCR8 mAb tested at 10 μg/mL then diluted at 1/3. Unbound antibodies were washed away with PBS (Gibco, Villebon-sur-yvette, France) supplemented by 2% Fetal Bovine Serum (Invitrogen by Thermofisher Scientific, Illkirch-Graffenstaden, France) and 2 mM EDTA. […] After washing unbound ligands, CCL1 bound detection is quantified on a MacsQuant16 (Miltenyi, Gladbach, Germany) (R1 channel, 5 000 events per acquisition).
For IC₅₀ determination, a concentration response curve is performed using 8 concentrations of mAb. Curves are fitted and IC₅₀ of CCL1 binding blocking activity is calculated using the sigmoidal dose-response (variable slope) model on GraphPad Prism 9 (GraphPad Software, San Diego, CA, USA).

human CCR8 [4] = target: T1, human CCR8; assay: flow cytometry, hCCR8-transfected CHO-K1 cells
Description: Briefly, 1.10⁵ cells per well in a 96 well plate were incubated with a dilution of unconjugated anti-CCR8 mAb at 10 μg/mL then diluted at 1/3.33, 4 dilution points (during 30 min at 4° C.). In human activated T cells model, prior to mAb incubation, cells were first incubated with 200 nM of hCCL1 (R&D Systems, Minneapolis, MN, USA) or buffer PBS (Invitrogen by Thermofisher Scientific, Illkirch-Graffenstaden, France) supplemented by 2% Fetal Bovine Serum (Invitrogen by Thermofisher Scientific, Illkirch-Graffenstaden, France) and 2 mM EDTA (Invitrogen by Thermofisher Scientific, Illkirch-Graffenstaden, France) during 1 hour at 4° C. To determine EC50 value, 8 concentrations of anti-CCR8 mAb were tested. Unbound antibodies were washed away with PBS (Invitrogen by Thermofisher Scientific, Illkirch-Graffenstaden, France) supplemented by 2% Fetal Bovine Serum (Invitrogen by Thermofisher Scientific, Illkirch-Graffenstaden, France) and 2 mM EDTA (Invitrogen by Thermofisher Scientific, Illkirch-Graffenstaden, France). Subsequently, cells are centrifuged (5 min at 400 g) and bound antibody is detected with F(ab′)2-Goat anti-Mouse IgG (H+L) Cross-Adsorbed Secondary Antibody, Alexa Fluor 488 (dilution 1/500) (Invitrogen by Thermofisher Scientific, Illkirch-Graffenstaden, France) or with F(ab′)₂-Goat anti-Human IgG Fc Secondary Antibody, PE (Invitrogen by Thermofisher Scientific, Illkirch-Graffenstaden, France) (dilution 1/1000) at 4° C. for 30 min. Detection reagent is washed away and cells are centrifuged (5 min at 400 g) and resuspended in 30 μL PBS. Bound detection antibody is quantified on a MacsQuant16 (Miltenyi, Gladbach, Germany) (B1 or B2 channel, 5000 events per acquisition). During the experiment, the respective isotype mAb controls (mouse IgG1, mouse IgG2a, mouse IgG2b, mouse IgG3 or human IgG1) (Biolegend, Amsterdam, The Netherlands) are included to exclude any unspecific binding events. EC50 values were determined via nonlinear fit “log (agonist) vs.response—Variable slope (four parameters)” function of Graphpad prism. EC50 values were not constantly determined in the same experiments.

human CCR8 [5] = target: T1, human CCR8; assay: cell-based or functional assay; remark: listed apart in the source
human CCR8 [6] = target: T1, human CCR8; assay: cell-based or functional assay; remark: listed apart in the source
human CCR8 [7] = target: T1, human CCR8; assay: cell-based or functional assay; remark: listed apart in the source
pm8 = target: T2, pm8 (Y15, Y16 and Y17 sulfated); assay: ELISA on coated peptide [cont.]
T2 construct: also called sulfated CCR8 N-terminal peptide pm8
Description: (§1) The specific binding properties of antibodies were evaluated by ELISA with coated CCR8 related peptides (500 ng/ml) in carbonate/bicarbonate buffer. Different peptides were used as described in Table 1 (see Example 1). Each anti-CCR8 mAb was tested at 1 μg/mL then diluted at 1/10. After an incubation at room temperature during 90 min, unbound mAbs were removed by washings. […] After washings, 3,3′,5,5′-tetramethylbenzidine (TMB) (Interchim, Montluçon, France) was added for 15 min. Then the optical density (OD) was determined by using a multiplate reader (Tecan, Lyon, France) and correlated with mAb reactivity on the panel of coated peptides.

pm3 = target: T3, pm3 (Y17 sulfated; Y15 and Y16 not sulfated); assay: ELISA on coated peptide [cont.]
T3 construct: also called sulfated CCR8 N-terminal peptide pm3
Description: as §1

pm6 = target: T4, pm6 (Y16 and Y17 sulfated; Y15 not sulfated); assay: ELISA on coated peptide [cont.]
T4 construct: also called sulfated CCR8 N-terminal peptide pm6
Description: as §1

pm5 = target: T5, pm5 (Y15 and Y17 sulfated; Y16 not sulfated); assay: ELISA on coated peptide [cont.]
T5 construct: also called sulfated CCR8 N-terminal peptide pm5
Description: as §1

T3 sequence (peptide, as listed by the source): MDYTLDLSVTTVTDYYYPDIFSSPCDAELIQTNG
T2 sequence (peptide, as listed by the source): as above
T4 sequence (peptide, as listed by the source): as above
T5 sequence (peptide, as listed by the source): as above

| Binder | ADCC % max lysis, HUT78 targets, NK donor 3 (human CCR8 [1]) | ADCC % max lysis, HUT78 targets, NK donor 4 (human CCR8 [1]) | ADCC EC50, HUT78 targets, NK donor 3 (human CCR8 [1]) | ADCC EC50, HUT78 targets, NK donor 4 (human CCR8 [1]) | extrapolated top plateau of hCCL1 curve with 5 µg/mL mAb, protocol #3 (human CCR8 [2]) | IC50 (human CCR8 [3]) | % positive cells (human CCR8 [4]) | MFI fold change to isotype ctrl (human CCR8 [4]) | residual hCCL1 (100 nM) Gi2 response, protocol #2, mAb 0.08 µg/mL (human CCR8 [5]) | residual hCCL1 (100 nM) Gi2 response, protocol #2, mAb 0.4 µg/mL (human CCR8 [5]) | residual hCCL1 (100 nM) Gi2 response, protocol #2, mAb 10 µg/mL (human CCR8 [5]) | residual hCCL1 (100 nM) Gi2 response, protocol #3, mAb 0.05 µg/mL (human CCR8 [5]) | residual hCCL1 (100 nM) Gi2 response, protocol #3, mAb 0.5 µg/mL (human CCR8 [5]) | residual hCCL1 (100 nM) Gi2 response, protocol #3, mAb 5 µg/mL (human CCR8 [5]) | IC50 of CCL1-induced hCCR8 Gi2 signaling (BRET, HEK-293) (human CCR8 [7]) | further results |
| --- | --- | --- | --- | --- | --- | --- | --- | --- | --- | --- | --- | --- | --- | --- | --- | --- |
| B1 | 16% | 18% | 0.291 nM | 0.406 nM |  |  |  |  |  |  |  |  |  |  |  |  |
| B2 | 25% | 30% | 0.00822 nM | 0.0489 nM |  |  |  |  |  |  |  |  |  |  |  |  |
| B3 |  |  |  |  | 292 % of hCCL1 (100 nM) | 6.41 µg/mL and 43 nM | 34.7% | 2.34 fold | 97% | 96% | 84% | 96% | 81% | 73% | 0.092 µg/mL and 0.616 nM | IC50 of CCL1-induced hCCR8 Gi2 signaling (BRET), pH 6.5 (human CCR8 [6]): 0.162 µg/ml and 1.08 nM; IC50 of CCL1-induced hCCR8 Gi2 signaling (BRET), pH 7.4 (human CCR8 [6]): 0.152 µg/ml and 1.01 nM |
| B4 | 14% | 15% | 0.793 nM | 1.52 nM |  |  |  |  |  |  |  |  |  |  |  |  |
| B5 | 29% | 29% | 0.195 nM | 0.282 nM |  |  |  |  |  |  |  |  |  |  |  |  |
| B6 |  |  |  |  | 855 % of hCCL1 (100 nM) | ~0.6 µg/mL and 4.01 nM | 56.2% | 4.78 fold | 104% | 46% | 28% | 80% | 57% | 45% | 0.046 µg/mL and 0.306 nM | binding result (pm8): binds; binding result (pm3): binds; binding result (pm6): binds; binding result (pm5): binds |
| B7 |  |  |  |  | 193000 % of hCCL1 (100 nM) | 1.18 µg/mL and 7.92 nM | 81.6% | 9.92 fold | 99% | 83% | 56% | 116% | 90% | 45% | 0.026 µg/mL and 0.172 nM |  |
